± gives the standard deviation.
Assay: protein stability index of a GFP-peptide fusion (GPS, HEK-293T) (PSI 1-6); higher = more stable
[1] = treatment: DMSO, c terminus: a fixed tail appended
[2] = treatment: MLN4924 1 uM, 8 h, c terminus: a fixed tail appended
[3] = treatment: DMSO, c terminus: native
[4] = treatment: MLN4924 1 uM, 8 h, c terminus: native
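Further: 24-mer peptide tiles fused after GFP, lentivirally expressed, FACS-sorted into six equal bins by GFP/DsRed ratio, decoded by Illumina sequencing, PSI is the read-weighted mean bin number.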

Row | Sequence | protein stability index [1] | protein stability index [2] | protein stability index [3] | protein stability index [4]
1 | SSLRRQFEFSVDSFQIVLDPMLDF [TENT5D] | 2.41 ± 0.32 | 2.17 ± 0.25 |  | 
2 | LNAELEEKMMQEAEKLKAQGEYSR [CCDC89] | 3.61 ± 0.28 | 3.71 ± 0.39 |  | 
3 | ELSEVLENQSSQAELKEAVEEPSS [CHGA] | 5.78 ± 0.21 | 5.67 ± 0.34 |  | 
4 | KCSDCGKAFLTKTMLIVHHRTHTG [ZNF649] | 2.84 ± 0.27 | 3.05 ± 0.45 |  | 
5 | LKSLIRLVKHWYQNCKKKLGKLPP [OAS1] | 2.94 ± 0.36 | 3.02 ± 0.25 |  | 
6 | LRESIASYLSLTSEDNTSFDRKKK [SLA] | 3.9 ± 0.16 | 3.81 ± 0.15 |  | 
7 | EIRKKVLKIYNKREEDFPSLREYN [MNAT1] | 2.45 ± 0.43 | 2.64 ± 0.51 |  | 
8 | SGEELHELFHTIDTHNTNNLDTEE [NECAB1] | 5.12 ± 0.6 | 5.08 ± 0.68 |  | 
9 | FNIFDWLGRSLTAVFMWPGKDSRW [SLC29A1] | 2.45 ± 0.79 | 2.63 ± 0.5 |  | 
10 | KIWRTPNGKTIEMDTQFTIRAREL [IQUB] | 2.55 ± 0.24 | 2.66 ± 0.19 |  | 
11 | TCTDRSGISTGHWSGEVKDKNVQV [FUT8] | 4.51 ± 0.21 | 4.49 ± 0.16 |  | 
12 | RSRGKVLKTKDGKLPFCAMGVSSV [CPOX] | 3.4 ± 0.2 | 3.15 ± 0.41 |  | 
13 | NQSFNIVDIKPANMEELTEVITAA [PPP2R2B] | 4.18 ± 0.26 | 4.26 ± 0.16 |  | 
14 | GNISGEFWLGNEALHSLTQAGDYS [TNXB] | 3.21 ± 0.091 | 3.36 ± 0.34 |  | 
15 | MQGAYCTFPASVLAPVPTHSTVSE [DUSP5] | 3.47 ± 0.2 | 3.61 ± 0.17 |  | 
16 | FSIPPWRYDAEVVAIAQKFAALRA [MYORG] | 2.15 ± 0.3 | 2.22 ± 0.17 |  | 
17 | PGFLSTAEEETLSRELEPELRRRR [ALKBH7] | 5.12 ± 0.23 | 5.28 ± 0.3 |  | 
18 | TPQHHEKQYAMQRPNDDSLAFLDK [IQUB] | 4.53 ± 0.23 | 4.58 ± 0.17 |  | 
19 | SQVMGSGRGSLSSGGQTSWDSGCL [PLEKHN1] | 4.02 ± 0.14 | 3.98 ± 0.13 |  | 
20 | MKAKQEALVKEREKQLAKKEQSKE [FAM50A] | 5.62 ± 0.24 | 5.55 ± 0.13 |  | 
21 | LTKLLASKSKEEVSSLISEKTNGA [FEM1C] | 4.07 ± 0.22 | 4.38 ± 0.26 |  | 
22 | KRVYEEFTKVVQPQEEIATKKLRL [INTS4] | 3.31 ± 0.33 | 3.86 ± 0.36 |  | 
23 | WLHCVCVVGFDLELGQAVEVIYPQ [DENND6A] | 2.66 ± 0.95 | 2.46 ± 0.085 |  | 

Row | Sequence | protein stability index [1] | protein stability index [2] | protein stability index [3] | protein stability index [4]
24 | SQESALGNTVPAVEPGTPPLDILA [DNAAF3] | 5.17 ± 0.15 | 5.14 ± 0.12 |  | 
25 | SQNSSLVQHERIHTGDKPYKCAEC [ZNF8] | 4.58 ± 0.29 | 4.82 ± 0.28 |  | 
26 | GEGLNVIQQTTRYFSTPQTMDLFL [NANOGP8] | 2.09 ± 0.34 | 2.32 ± 0.057 |  | 
27 | WDLNMENRPIETYQVHDYLRSKLC [PPP2R2B] | 2.65 ± 0.34 | 2.72 ± 0.29 |  | 
28 | RRMTVVGRLEGLIQPDDLINQLTF [FAF2] | 2.36 ± 0.2 | 2.33 ± 0.49 |  | 
29 | LPVLRGFPAKYIYDPWNAPEGIQK [CRY1] | 2.39 ± 0.17 | 2.28 ± 0.34 |  | 
30 | VNVGTTALWKHLKSMHREELEKSG [ZBED2] | 3.65 ± 0.24 | 3.48 ± 0.23 |  | 
31 | HLFLLGYSDGADDTFAAYTREQLY [MCOLN1] | 2.08 ± 0.29 | 2.35 ± 0.18 |  | 
32 | PVLGSSSGAGHGSGSGSGPGCGSV [SPAG8] | 4.8 ± 0.36 | 4.92 ± 0.49 |  | 
33 | HRVLQRLEQRRQQASEREAPSIEQ [FCHSD1] | 5.09 ± 0.25 | 4.99 ± 0.26 |  | 
34 | DQLAFIEELFSLMVVNRLTEELGC [EID1] | 3.01 ± 1.2 | 3.21 ± 0.51 |  | 
35 | MAAVLNAERLEVSVDGLTLSPDPE [ACBD3] | 4.41 ± 0.17 | 4.59 ± 0.17 |  | 
36 | KPWDFPSVHNDLWESWFVPDPAGI [GLT8D2] | 2.96 ± 0.38 | 2.69 ± 0.16 |  | 
37 | PLHELITMNRRVCVLMLLAAWIGG [OR4A15] | 2.84 ± 0.27 | 2.92 ± 0.26 |  | 
38 | RRKEYDALKAAKREQEKKPKKEAN [LRRC59] | 5.25 ± 0.15 | 5.17 ± 0.22 |  | 
39 | KNLLHAEFLRVQEERILHQQVKCI [VPS39] | 2.58 ± 0.16 | 2.71 ± 0.26 |  | 
40 | SALTFLRVDQDKDKDCSLDCAGSP [SMOC2] | 4.92 ± 0.42 | 5 ± 0.088 |  | 
41 | SLLQPVTPLGTSRWRKISAALPY [NCF4] |  |  | 2.54 ± 0.27 | 2.24 ± 0.28
42 | SEFHPHHCNLFVYSSSKGSLRLCD [PPP2R2C] | 2.23 ± 0.16 | 2.27 ± 0.26 |  | 
43 | PDSELSPCIPPGFRNLVADRVLNY [SPAG8] | 3.18 ± 0.23 | 3.34 ± 0.33 |  | 
44 | LRALKLVITALKCHKYDRNIQVTG [ZER1] | 3.14 ± 0.42 | 3.16 ± 0.65 |  | 
45 | MKACQEDDVRLLCHLTPSIYTEFP [INTS3] | 2.62 ± 0.28 | 2.55 ± 0.25 |  | 
46 | IHKGEKPYQCSQCSKSYSRRSFLI [ZSCAN9] | 2.46 ± 0.75 | 2.12 ± 0.42 |  | 

Row | Sequence | protein stability index [1] | protein stability index [2] | protein stability index [3] | protein stability index [4]
47 | STPFKPLALKTPPRVLTLSERPLD [MFF] | 4.08 ± 0.17 | 4 ± 0.15 |  | 
48 | SSSGYSSAEINQDLNIQLLKDGYR [FAM219A] | 3.67 ± 0.15 | 3.85 ± 0.22 |  | 
49 | NLSRGQTPLTEGSEDLDGHSDPEE [RETREG3] | 5.65 ± 0.22 | 5.67 ± 0.15 |  | 
50 | HVHDPHGQVIWGMSWAKLARQATN [FBXO39] | 2.58 ± 0.32 | 2.94 ± 0.21 |  | 
51 | QFSDEVEPATPEEGEPATQRQDPA [GAGE1] | 5.6 ± 0.11 | 5.57 ± 0.096 |  | 
52 | PESLTKPDQVAPFTFLQPLPLSPG [ATF4] | 4.21 ± 0.3 | 4.2 ± 0.12 |  | 
53 | NLMSLLMAVRPSLPESGLLSVLQI [FANCE] | 3.09 ± 0.51 | 2.78 ± 0.55 |  | 
54 | YSLRNKEFKSALCKIVRRTISLL [OR10K2] |  |  | 2.96 ± 0.64 | 2.93 ± 0.21
55 | PGNRTCTGTSKRYQLCRVQECPPD [ADAMTSL2] | 3.61 ± 0.32 | 3.69 ± 0.045 |  | 
56 | LRVLGSMCQRLRSMQYNGSYFDRG [DFFB] | 2.14 ± 0.29 | 2.23 ± 0.17 |  | 
57 | AGARKIYAVEASTMAQHAEVLVKS [CARM1] | 3.79 ± 0.39 | 4.07 ± 0.58 |  | 
58 | TKLQAQHVSYRELGACVRTAVAQG [SLC25A39] | 3.05 ± 0.42 | 3.29 ± 0.32 |  | 
59 | KLGLGIDEDEVAAEEPNAAVPDEI [HSP90AB1] | 5.8 ± 0.18 | 5.48 ± 0.24 |  | 
60 | LPNHKPKGTFKDYVRDRADLNKDK [ETS1] | 4.552 ± 0.017 | 4.74 ± 0.32 |  | 
61 | AEEIRIKGKYNISSEDYRQLELVI [KCNK9] | 2.25 ± 0.2 | 2.05 ± 0.38 |  | 
62 | AGLASGLLNQQSLKRSANQMGVSA [MED27] | 3.62 ± 0.06 | 3.69 ± 0.096 |  | 
63 | PGKLFIGGLNTETNEKALEAVFGK [RBMX] | 3.54 ± 0.35 | 3.69 ± 0.38 |  | 
64 | LEMRRRCTWSIFQSIEYAGQQDQV [PPEF2] | 1.92 ± 0.52 | 2.25 ± 0.1 |  | 
65 | VQSYMEHYCNSSTDRRVLLMFLDI [SPACA9] | 2.78 ± 0.38 | 2.71 ± 0.56 |  | 
66 | KKEQRRLGIPKNPWLWSEQQVCQW [ETS2] | 2.12 ± 0.18 | 2.43 ± 0.43 |  | 
67 | NEYLLNLVATNAHLDHYYQEELPA [FCHSD1] | 3.25 ± 0.11 | 3.27 ± 0.38 |  | 
68 | GIETLESVPIIGGFWETIFGNRIK [PHTF1] | 2.67 ± 0.41 | 2.81 ± 0.18 |  | 
69 | GDAHFDEDERWTNNFREYNLHRVA [MMP1] | 3.84 ± 0.18 | 4.11 ± 0.33 |  | 

Row | Sequence | protein stability index [1] | protein stability index [2] | protein stability index [3] | protein stability index [4]
70 | LEKKNEALKERADSLAKEIQYLKD [ATF4] | 4.53 ± 0.24 | 4.45 ± 0.056 |  | 
71 | YNRGEHPIFVNSPTLDAPGGRALV [SMAD6] | 3.13 ± 0.35 | 3.25 ± 0.34 |  | 
72 | PQQQHHKAKRNRTCRPPSSSESSS [ANKRD17] | 4.86 ± 0.16 | 4.92 ± 0.29 |  | 
73 | DDSSSESGSGNGSSTLNPSTSSST [NOL4L] | 5.57 ± 0.31 | 5.49 ± 0.2 |  | 
74 | QLGRALTAHLYSLLQTQHALGDAF [ARFIP2] | 3.25 ± 0.2 | 3.47 ± 0.57 |  | 
75 | GVTGWCTGFIFQKVGKLAATAVGG [FUNDC2] | 2.17 ± 0.048 | 2.48 ± 0.74 |  | 
76 | RQYRSIEVLIGAGYSTPADIWSTA [SRPK2] | 1.9 ± 0.37 | 2 ± 0.44 |  | 
77 | AQQFALMAPLLFNGCRSGEIFAID [DCAF4] | 2.6 ± 0.72 | 2.64 ± 0.34 |  | 
78 | YEKFKLYLTIILILISFTCRFLLN [TMEM120A] | 3.05 ± 0.21 | 2.91 ± 0.39 |  | 
79 | RGKLKKTEEELRRIQTQKEQAKEN [ZC2HC1C] | 5.31 ± 0.13 | 5.39 ± 0.13 |  | 
80 | KRRPKAQPTTLVLPPQYVDDVISR [MED27] | 4.03 ± 0.12 | 4.06 ± 0.17 |  | 
81 | EPEEPSEIPERRDSGVGASLTRSN [DLC1] | 5.51 ± 0.31 | 5.46 ± 0.33 |  | 
82 | IEIATYRKLLEGEESRISVPVHSF [PRPH] | 2.47 ± 0.26 | 2.47 ± 0.21 |  | 
83 | PSKTYPAFLEPDETFIVPDSFLVA [SPSB1] | 2.39 ± 0.33 | 2.45 ± 0.15 |  | 
84 | NLNREEKIIREIDFYREDEDEEEE [TRIM55] | 5.37 ± 0.15 | 5.3 ± 0.32 |  | 
85 | IARDQTKSIVEKIQAKLPGIAKKK [RTN3] | 3.8 ± 0.15 | 3.75 ± 0.32 |  | 
86 | FHNLRNTLDGYGIHPKSIDLDNYF [NFE2L1] | 2.31 ± 0.44 | 2.07 ± 0.15 |  | 
87 | PICSANHKESKMTIFEKENFIGRQ [CRYBA1] | 3.34 ± 0.27 | 3.46 ± 0.18 |  | 
88 | LRGALQQGEAFQRALESELQQLRA [PBXIP1] | 3.56 ± 0.24 | 3.67 ± 0.23 |  | 
89 | IKMMQAVRQAFQDQDDRRTWDGRP [GFOD1] | 3.21 ± 0.26 | 3.6 ± 0.19 |  | 

From the supplement of paper PMC10567573
